From patent publication US20040122214A1 (TRIMERIS, published 2004)
No end group written: not given here.

Assays:
[1] = biological target: gp41 of HIV-1 strain sensitive to SEQ ID NO:114 peptide (HIV-1); assay: cell-based or functional assay
[2] = biological target: gp41 of HIV-1 strain resistant to SEQ ID NO:114 peptide (HIV-1); assay: cell-based or functional assay

| Binder | IC50, in vitro infectivity assay [1] | IC90, in vitro infectivity assay [1] | IC50, in vitro infectivity assay [2] | IC90, in vitro infectivity assay [2] |
| --- | --- | --- | --- | --- |
| LTWQEWDREINNYTSLIYSLIEESQNQQEENEQELL [peptide comprising SEQ ID NO:114, synthetic peptide alone] | 0.005 µg/mL | 0.034 µg/mL | 2.4 µg/mL | > 20 µg/mL |
| {PEG‑6 diacid}-LTWQEWDREINNYTSLIYSLIEESQNQQEENEQELL (other, not fully specified; also: dimer: two peptides bound to PEG-6 diacid via N-termini) [conjugate comprising two molecules of SEQ ID NO:114 operably bound to PEG 6] | 0.016 µg/mL | 0.169 µg/mL | 0.15 µg/mL | – |
